# Changes are numbered by the printed parent chain.
# B1: 24DT02: herbicide-resistant protein of 298 amino acids, SEQ ID NO: 2, encoded by nucleotide sequence SEQ ID NO: 1 (protein)
# chain: MERHAMSNGKQIVRIEPLPGKTFGAVVTGVRLSELDEDTFSLLYREWLQYALLIFPAQYLTDSQQRDAASKFGCLVEGLEAVEISNLLPTGEVRAAPDDDMMKIIRGNMQWHQDNTYMPLQAKGALFSAKRVPSSGGETGFADMRAAWDALDTETQDRLANLSAYHSLAQSQKNLGEDVKSSDSEYIGYGLDVSTVPRRSLLKIHPETDRKTLAVGRHAFGVTGMAEQESTQFVSDLIDFAVADESRTYHHIWSEGDAILWDNRCLMHRACPWNFSQPRVMLHSRIAGDPSTEAALNS
# modifications: 24DT02 amino acid sequence
# B2: 24DT02-i: substituted 24DT02 (SEQ ID NO: 3), in which the Met267 was substituted with Leu (protein)
# chain: B1 chain with M267L
# modifications: 24DT02 substituted nucleotide sequence
# B3: 24DT02-a: added 24DT02 (SEQ ID NO: 5), Ala, Leu and Val added after the 298th amino acid (protein)
# chain: MERHAMSNGKQIVRIEPLPGKTFGAVVTGVRLSELDEDTFSLLYREWLQYALLIFPAQYLTDSQQRDAASKFGCLVEGLEAVEISNLLPTGEVRAAPDDDMMKIIRGNMQWHQDNTYMPLQAKGALFSAKRVPSSGGETGFADMRAAWDALDTETQDRLANLSAYHSLAQSQKNLGEDVKSSDSEYIGYGLDVSTVPRRSLLKIHPETDRKTLAVGRHAFGVTGMAEQESTQFVSDLIDFAVADESRTYHHIWSEGDAILWDNRCLMHRACPWNFSQPRVMLHSRIAGDPSTEAALNSALV
# modifications: 24DT02 added nucleotide sequence
# B4: 24DT02-t: truncated 24DT02 (SEQ ID NO: 4), amino acids from 1 to 295 of 24DT02 amino acid sequence (protein)
# chain: MERHAMSNGKQIVRIEPLPGKTFGAVVTGVRLSELDEDTFSLLYREWLQYALLIFPAQYLTDSQQRDAASKFGCLVEGLEAVEISNLLPTGEVRAAPDDDMMKIIRGNMQWHQDNTYMPLQAKGALFSAKRVPSSGGETGFADMRAAWDALDTETQDRLANLSAYHSLAQSQKNLGEDVKSSDSEYIGYGLDVSTVPRRSLLKIHPETDRKTLAVGRHAFGVTGMAEQESTQFVSDLIDFAVADESRTYHHIWSEGDAILWDNRCLMHRACPWNFSQPRVMLHSRIAGDPSTEAA
# modifications: 24DT02 truncated nucleotide sequence
# Tests used:
# Arabidopsis = test: Effective dose distinguishing sensitive from resistant Arabidopsis; format: in vivo
# [1] = system: corn plants transfected with 24DT02 nucleotide sequence; test: Herbicide-resistance effect test of transgenic corn plants (24DT02; strains S1-S3); format: in vivo, maize; conditions: for resistance levels against 2,4-D dimethyl ammonium salt and agroxone, compared among the sequences: corn plants transformed with the respective sequence
# Protocol: Herbicide resistance effects tests to 2,4-D dimethyl ammonium salt and agroxone of maize plants containing 24DT02 nucleotide sequence, 24DT02 substituted nucleotide sequence, 24DT02 truncated nucleotide sequence, 24DT02 added nucleotide sequence, control nucleotide sequence respectively and wild type maize plants (stages V3-V4) were performed respectively.
# Maize plants containing 24DT02 nucleotide sequence, 24DT02 substituted nucleotide sequence, 24DT02 truncated nucleotide sequence, 24DT02 added nucleotide sequence, control nucleotide sequence respectively and wild type maize plants were taken and spayed with 2,4-D dimethyl ammonium salt (8960 g ae/ha, 16-folds concentration in field), agroxone (8960 g ae/ha, 16-folds concentration in field) and blank solvent (water) respectively. Prop root development was counted 21 days after spaying. Three strains (S1, S2, and S3) of corn plants transfected with 24DT02 nucleotide sequence, two strains (S4 and S5) of corn plants transfected with 24DT02 substituted nucleotide sequence, two strains (S6 and S7) of corn plants transfected with 24DT02 truncated nucleotide sequence, two strains (S8 and S9) of corn plants transfected with 24DT02 added nucleotide sequence, two strains (S10 and S11) of corn plants transfected with control nucleotide sequence and 1 strain of wild type (CK) corn were selected and 10-15 plants from each stain were tested.
# [2] = system: Arabidopsis T1 plants transformed with 24DT02 nucleotide sequence; test: Herbicide resistance effect test of transgenic Arabidopsis T1 plants (24DT02); format: in vivo, Arabidopsis thaliana; conditions: for resistance levels to 2,4-D dimethyl ammonium salt and agroxone, compared among the sequences: Arabidopsis T1 plants transformed with the respective sequence
# Protocol: On 7 days after planting (DAP) and 11 DAP respectively, the T1 plants (cotyledon stage and 2-4 leaves stage, respectively) were sprayed with 0.2% of Liberty herbicide solution (200 g ai/L glufosinate-ammonium) using DeVilbiss compressed air nozzle at a spraying volume of 10 ml/disc (703 L/ha) so as to provide effective amount of glufosinate-ammonium (280 g ai/ha) for each application. The survival plants (actively growing plants) were verified 4 to 7 days after the last spraying and transferred into the square pot (7 cm×7 cm) made from vermiculite and horses dung (3-5 plants per pot). The transplanted plants were covered with moisturizing mask for 3-4 days and placed in culture room at 22° C. or directly into the greenhouse as described above. Then the mask was removed and the plants were planted in greenhouse (22±5° C., 50±30% RH, 14 hours of lighting: 10 hours of darkness, minimum […] natural light+complement light) at least one day before testing the ability of 24DT02 to provide the resistance to phenoxy auxin herbicide.
# 24DT02 gene was used to transform Arabidopsis for the first time. At first, T1 transformants were selected from the background of un-transformed seeds, using glufosinate-ammonium selection scheme. About 40000 T1 seeds were screened among which 195 strains of T1 generation positive transformants (PAT gene) were identified, i.e. the transformation efficiency was about 0.5%. Herbicide resistance effect tests to 2,4-D dimethyl ammonium salt and agroxone of Arabidopsis T1 plants transformed with 24DT02 nucleotide sequence, substituted 24DT02 nucleotide sequence, truncated 24DT02 nucleotide sequence, added 24DT02 nucleotide sequence, control nucleotide sequence respectively and wild-type Arabidopsis plants were performed after 18 days of planting.
# Arabidopsis T1 plants transformed with 24DT02 nucleotide sequence, substituted 24DT02 nucleotide sequence, truncated 24DT02 nucleotide sequence, added 24DT02 nucleotide sequence and control nucleotide sequence respectively and wild-type Arabidopsis plants were sprayed with 2,4-D dimethyl ammonium salt (560 g ae/ha, 1-fold concentration in field), agroxone (560 g ae/ha, 1-fold concentration in field) and blank solvent (water). Resistance conditions of the plants were counted 7 days and 14 days after spraying. Plants with growth conditions consistent with blank solvent (water) 7 days after spaying were classified as highly resistant plants; Plants with curly rosette leaves 7 days after spaying were classified as moderately resistant plants; Plants incapable of bolting 14 days after spaying were classified as low-resistant plants and the dead plants 14 days after spaying were classified as non-resistant plants. Because each Arabidopsis T1 plant was an independent transformation event, significant differences of individual T1 responses were expected under a given dose.
molecule,measurement,setting,value
"O=C(O)COc1ccc(Cl)cc1Cl [2,4-D, 2,4-dichlorophenoxyacetic acid]",effective dose to distinguish the sensitive plants from plants with average resistance,Arabidopsis,50 g ae/ha
B1,"resistance levels against 2,4-D dimethyl ammonium salt and agroxone, compared among the sequences",[1],didn't show significant differences
same,herbicide resistance conferred to plants,"[1]; transgenic maize plants, 2,4-D dimethyl ammonium salt and agroxone 8960 g ae/ha, Table 2",conferred high resistance against herbicides to the transgenic maize plants
same,"resistance levels to 2,4-D dimethyl ammonium salt and agroxone, compared among the sequences",[2],didn't show significant differences
same,herbicide resistance conferred to plants,"[2]; Arabidopsis T1 plants, 2,4-D dimethyl ammonium salt and agroxone 560 g ae/ha, Table 1 and FIG. 4",conferred herbicide resistance to individual Arabidopsis plants
B2,"resistance levels against 2,4-D dimethyl ammonium salt and agroxone, compared among the sequences",[1],didn't show significant differences
same,"resistance levels to 2,4-D dimethyl ammonium salt and agroxone, compared among the sequences",[2],didn't show significant differences
B3,"resistance levels against 2,4-D dimethyl ammonium salt and agroxone, compared among the sequences",[1],didn't show significant differences
same,"resistance levels to 2,4-D dimethyl ammonium salt and agroxone, compared among the sequences",[2],didn't show significant differences
B4,"resistance levels against 2,4-D dimethyl ammonium salt and agroxone, compared among the sequences",[1],didn't show significant differences
same,"resistance levels to 2,4-D dimethyl ammonium salt and agroxone, compared among the sequences",[2],didn't show significant differences

# Reference: US9462805B2, “Herbicide-resistant proteins, encoding genes, and uses thereof” (Beijing Dabeinong Technology Group Co., Ltd., priority 2012, dated 2016)
